The target in the test is T1, preformed t-SNARE heterodimers (syntaxin 1A and SNAP-25B) in PS-free proteoliposomes (rat | mouse, UniProt P32851 1-288; P60879-1 1-206).
T1 construct: syntaxin-1A, rat, full-length cDNA; SNAP-25B, mouse; the sentence 'cDNA encoding full-length rat syntaxin-1A, mouse SNAP-25B and mouse synaptobrevin-2' is read as full length for all three; also called t-SNAREs; t-SNARE vesicles; source: pTrcHis vector, purified by the N-terminal His6-tag; reconstituted into PS-free vesicles
T1 sequence (P32851 whole entry, chain 1 of 2): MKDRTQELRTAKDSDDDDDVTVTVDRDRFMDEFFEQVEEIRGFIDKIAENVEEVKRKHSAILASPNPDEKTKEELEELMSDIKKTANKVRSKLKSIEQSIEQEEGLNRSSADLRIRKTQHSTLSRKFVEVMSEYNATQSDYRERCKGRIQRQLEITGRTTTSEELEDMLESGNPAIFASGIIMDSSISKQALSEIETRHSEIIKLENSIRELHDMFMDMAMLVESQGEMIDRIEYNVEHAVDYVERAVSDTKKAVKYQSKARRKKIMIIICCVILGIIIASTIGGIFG
T1 sequence (P60879 whole entry, chain 2 of 2): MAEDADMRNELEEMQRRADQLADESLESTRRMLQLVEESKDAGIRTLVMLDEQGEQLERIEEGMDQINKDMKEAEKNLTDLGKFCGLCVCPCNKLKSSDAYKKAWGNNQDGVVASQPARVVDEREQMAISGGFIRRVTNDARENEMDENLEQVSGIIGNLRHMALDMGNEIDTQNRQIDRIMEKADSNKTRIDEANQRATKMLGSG
Briefly: co-flotation; 11 uM syt cytoplasmic domain mixed with 45 ul PS-free t-SNARE vesicles in 25 mM HEPES-KOH pH 7.4, 100 mM KCl, 10% glycerol, 1 mM dithiothreitol; 0.2 mM EGTA or 1 mM free Ca2+; RT 45 min; Accudenz gradient, 287,000g; SDS-PAGE, Coomassie blue, densitometry. The following applies: both partners purified.

B1: wild-type cytoplasmic domain of synaptotagmin 1 (residues 96-421) (domain or fragment, rat, UniProt P21707 96-421, looked up)
chain: GGKNAINMKDVKDLGKTMKDQALKDDDAETGLTDGEEKEEPKEEEKLGKLQYSLDYDFQNNQLLVGIIQAAELPALDMGGTSDPYVKVFLLPDKKKKFETKVHRKTLNPVFNEQFTFKVPYSELGGKTLVMAVYDFDRFSKHDIIGEFKVPMNTVDFGHVTEEWRDLQSAEKEEQEKLGDICFSLRYVPTAGKLTVVILEAKNLKKMDVGGLSDPYVKIHLMQNGKRLKKKKTTIKKNTLNPYYNESFSFEVPFEQIQKVQVVVTVLDYDKIGKNDAIGKVFVGYNSTGAELRHWSDMLANPRRPIAQWHTLQVEEEVDAMLAVKK
notes: synaptotagmin 1, rat, cytoplasmic domain with the tandem C2-domains C2A and C2B, residues 96-421; the D374 of the original cDNA was corrected to glycine; The native linker between C2A and C2B is residues 264-272, SAEKEEQEK; Residue 374 is glycine after correction of the cDNA; also called WT syt; syt
For the molecule B1, the binding result is recorded as “binds”.

Source of the values: paper PMC4804166, “Different states of synaptotagmin regulate evoked versus spontaneous release” (Nature Communications, 2016).
